This note sets out measurements from patent US20180311371A1 (Hoffmann-La Roche, published 2018).

Experiment [1] deals with T1, human TPBG (trophoblast glycoprotein), full length, cell surface expressed (human, UniProt Q13641 32-420).
T1 sequence: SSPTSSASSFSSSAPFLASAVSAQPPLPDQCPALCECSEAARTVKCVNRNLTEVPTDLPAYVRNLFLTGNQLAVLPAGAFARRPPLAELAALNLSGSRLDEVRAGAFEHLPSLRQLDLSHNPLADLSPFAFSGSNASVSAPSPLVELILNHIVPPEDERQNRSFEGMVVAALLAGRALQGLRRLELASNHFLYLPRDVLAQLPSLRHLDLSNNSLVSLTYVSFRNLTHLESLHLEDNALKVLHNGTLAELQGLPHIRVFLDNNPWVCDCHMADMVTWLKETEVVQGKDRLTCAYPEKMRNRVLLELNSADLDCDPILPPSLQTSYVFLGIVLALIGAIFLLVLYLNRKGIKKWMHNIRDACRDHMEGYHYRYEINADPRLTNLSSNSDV
Nature of the experiment: cell-based or functional assay.

Experiment [2] has as its target T1, human TPBG (trophoblast glycoprotein), …. Kind of experiment: cell-based or functional assay. This is another data set of the same source.
In experiment [3] the target is T2, minipig TPBG, full length, cell surface expressed on CHO-K1 cells (minipig).
T2 chain: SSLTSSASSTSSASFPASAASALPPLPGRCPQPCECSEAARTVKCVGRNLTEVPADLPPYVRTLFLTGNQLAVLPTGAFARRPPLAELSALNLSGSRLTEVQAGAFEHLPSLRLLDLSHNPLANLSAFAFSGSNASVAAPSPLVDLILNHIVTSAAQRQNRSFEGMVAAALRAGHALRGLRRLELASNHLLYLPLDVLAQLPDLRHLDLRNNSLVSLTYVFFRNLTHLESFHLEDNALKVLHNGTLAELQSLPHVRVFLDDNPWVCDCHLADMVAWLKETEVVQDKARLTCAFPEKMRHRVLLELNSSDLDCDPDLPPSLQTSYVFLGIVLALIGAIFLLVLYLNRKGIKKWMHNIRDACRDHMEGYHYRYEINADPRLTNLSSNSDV
Nature of the experiment: cell-based or functional assay.

Experiment [4] has as its target T1, human TPBG (trophoblast glycoprotein), …. Kind of experiment: cell-based or functional assay. This is another data set of the same source.
For experiment [5] the target is unchanged. Nature of the experiment: cell-based or functional assay. The source holds these as a separate data set.
Experiment [6] has the same target. Nature of the experiment: cell ELISA on MCF7 cells; titrated from 5 µg/ml.
Experiment [7] deals with T3, huTPBG (recombinant human TPBG immobilised on the Biacore chip) (human, UniProt Q13641 32-355, limits assumed).
T3 construct: also called human TPBG antigen
T3 sequence: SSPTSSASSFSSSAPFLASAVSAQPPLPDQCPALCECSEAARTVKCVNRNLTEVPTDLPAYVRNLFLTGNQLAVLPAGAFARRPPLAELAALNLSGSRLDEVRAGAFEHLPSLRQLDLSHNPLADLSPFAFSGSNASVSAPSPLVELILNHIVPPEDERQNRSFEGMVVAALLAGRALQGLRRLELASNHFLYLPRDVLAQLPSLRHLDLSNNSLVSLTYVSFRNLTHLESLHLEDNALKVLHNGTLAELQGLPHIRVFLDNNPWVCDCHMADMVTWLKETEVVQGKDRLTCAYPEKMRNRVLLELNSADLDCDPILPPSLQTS
Kind of experiment: SPR Biacore T200; huTPBG amine-coupled, Fab injected. In general terms: Surface plasmon resonance follows binding to a sensor surface in real time, without labels.

Experiment [8] has as its target T1, human TPBG (trophoblast glycoprotein), …. Nature of the experiment: flow cytometry on SW620 clone 4 cells; ratio of MFI; replicate 1.
The target is the same in experiment [9]. Nature of the experiment: flow cytometry on SW620 clone 4 cells; ratio of MFI; replicate 2.
Experiment [10] deals with T4, recombinant extracellular domain of minipig TPBG (Biacore analyte) (minipig).
T4 chain: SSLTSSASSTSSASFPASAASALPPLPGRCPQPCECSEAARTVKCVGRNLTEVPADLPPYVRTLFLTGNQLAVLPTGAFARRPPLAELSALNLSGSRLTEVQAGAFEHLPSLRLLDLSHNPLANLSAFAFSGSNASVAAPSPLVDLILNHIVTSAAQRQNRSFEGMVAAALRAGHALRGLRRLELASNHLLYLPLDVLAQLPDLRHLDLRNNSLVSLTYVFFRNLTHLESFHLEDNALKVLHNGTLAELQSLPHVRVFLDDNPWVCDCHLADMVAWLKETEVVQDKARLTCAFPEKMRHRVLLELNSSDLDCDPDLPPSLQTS
Nature of the experiment: SPR Biacore T200; Fab captured by anti-huFab, minipig TPBG injected.

Experiment [11] concerns the target T5, human TPBG extracellular domain, His6Avi, biotinylated (human, biotinylated).
T5 construct: also called huTPBG; human TPBG-AviHis
T5 chain: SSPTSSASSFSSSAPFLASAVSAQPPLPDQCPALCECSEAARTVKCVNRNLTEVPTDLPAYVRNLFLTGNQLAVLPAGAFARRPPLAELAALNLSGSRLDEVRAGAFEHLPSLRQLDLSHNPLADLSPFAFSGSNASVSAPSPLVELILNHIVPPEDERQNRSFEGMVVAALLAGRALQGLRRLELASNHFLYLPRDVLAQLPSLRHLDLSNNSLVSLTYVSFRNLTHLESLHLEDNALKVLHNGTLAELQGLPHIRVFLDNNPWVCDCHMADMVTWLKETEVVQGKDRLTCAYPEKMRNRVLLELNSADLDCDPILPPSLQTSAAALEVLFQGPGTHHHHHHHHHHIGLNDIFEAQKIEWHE
Nature of the experiment: ELISA; biotinylated TPBG-AviHis on streptavidin plate; Fab titrated from 2 µg/ml. (In an ELISA, binding on a coated surface is turned into a signal by an enzyme label.)

The target of experiment [12] is T6, minipig TPBG extracellular domain, His6Avi, biotinylated (minipig, biotinylated).
T6 construct: also called mpTPBG; minipig TPBG-AviHis
T6 chain: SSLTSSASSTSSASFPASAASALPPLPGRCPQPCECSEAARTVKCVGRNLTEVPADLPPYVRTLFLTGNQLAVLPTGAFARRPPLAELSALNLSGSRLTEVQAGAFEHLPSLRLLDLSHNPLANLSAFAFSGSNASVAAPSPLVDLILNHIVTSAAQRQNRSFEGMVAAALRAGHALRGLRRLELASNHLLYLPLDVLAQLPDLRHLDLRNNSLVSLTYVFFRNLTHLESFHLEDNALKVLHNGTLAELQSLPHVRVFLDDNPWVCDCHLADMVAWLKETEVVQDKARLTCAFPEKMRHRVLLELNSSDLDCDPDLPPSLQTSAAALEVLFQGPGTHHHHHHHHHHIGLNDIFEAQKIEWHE
The description is as above.

For experiment [13], the target named is T7, minipig TPBG extracellular domain, huIgG1-Fc-His (minipig).
T7 construct: also called Fc-TPBG (mp)
Nature of the experiment: ELISA; Fc-TPBG coated; mAb titrated from 1 µg/ml.

Experiment [14] addresses T8, human TPBG extracellular domain, huIgG1-Fc-His6 (human).
T8 construct: also called Fc-TPBG (hu)
Nature of the experiment: ELISA; Fc-TPBG coated; mAb titrated from 1 µg/ml.

B1: anti-TPBG antibody 051, Fab fragment (Fab, V domains shown)
VH: EVQLLESGGGLLQPGGSLRLSCAASGFTFSIYWMTWVRQAPGKGLEWVSAISGSGGSTYYADSVKGRFTISRDNSKNTLYLQMNSLRAEDTAVYYCAKDYYSNVYWGQGTLVTVSS
VL: DIQMTQSPSSVSASVGDRVTITCRASQGIYSWLAWYQQKPGKAPKLLIYAASSLQSGVPSRFSGSGSGTDFTLTISSLQPEDFATYYCQQSDSPPYTFGQGTKLEIK
notes: also called Fab3
Take B1: in [1], the “internalization after 0.5 h, MCF7 cells” value was 31%; the “internalization after 1.0 h, MCF7 cells” value came to 55%; the “internalization after 2.0 h, MCF7 cells” value stood at 72%. Besides, in [2], the “EC50 cytotoxicity, Fab + anti-kappa-Fab-PE, CHO-K1/human TPBG, replicate 1” value is 0.28 nM and the “EC50 cytotoxicity, Fab + anti-kappa-Fab-PE, CHO-K1/human TPBG, replicate 2” value is 0.38 nM. Also, in [3], the “EC50 cytotoxicity, Fab + anti-kappa-Fab-PE, CHO-K1/minipig TPBG, replicate 1” value amounted to 6.18 nM and the “EC50 cytotoxicity, Fab + anti-kappa-Fab-PE, CHO-K1/minipig TPBG, replicate 2” value was 5.04 nM. Further, in [4], the “EC50 cytotoxicity, Fab-PE sandwich construct, MCF7” value was 1.35 nM and the “X-fold higher potency compared to TPBG(H8)PE, MCF7” value came out at 1.1 fold. Moreover, in experiment [5], the “EC50 cytotoxicity, Fab-PE sandwich construct, H1975, replicate 1” value worked out at 0.522 nM; the “EC50 cytotoxicity, Fab-PE sandwich construct, H1975, replicate 2” value is 0.397 nM; the “EC50 cytotoxicity, Fab-PE sandwich construct, H1975, replicate 3” value was found to be 0.527 nM. In addition, in [6], the EC50 (usually the concentration needed to bring the measured effect to its halfway point) came out at 0.0575 µg/mL. For the same molecule, in experiment [7], the Kd (commonly the constant that tells how readily two partners part at equilibrium) was found to be 0.16 nM, the koff (commonly the first-order rate constant of dissociation) was 7.83e-05 s⁻¹ and the kon (commonly the rate constant with which the complex forms) was found to be 489000 M⁻¹ s⁻¹. The “Fold change pH 7.2 vs pH 5.5” value in experiment [8] is 1.1 fold. Also, the “Fold change pH 7.2 vs pH 5.5” value in [9] worked out at 1.1 fold. In experiment [10], the Kd came out at 2.05 nM, the koff was determined as 0.000193 s⁻¹ and the kon worked out at 94000 M⁻¹ s⁻¹. The same molecule gave an EC50 in [11] of 0.0181 µg/mL. Moreover, the concentration giving a half-maximal response (EC50) in experiment [12] is 0.175 µg/mL.

B2: anti-TPBG antibody 051 (mAb) (antibody, V domains shown)
VH: B1 VH
VL: B1 VL
In the case of B2, the binding result in experiment [13] and in [14] was “binds” in each case.

B3: anti-TPBG antibody 097, Fab fragment (Fab, V domains shown)
VH: EVQLLESGGGLAQPGGSLRLSCAASGFTFNNDAMTWVRQAPGKGLEWVSAISGSGGSTYYADSVKGRFTISRDNSKNTLYLQMNSLRAEDTAVYYCAKGGSWGDWYYYFYPMDVWGQGTTVTVSS
VL: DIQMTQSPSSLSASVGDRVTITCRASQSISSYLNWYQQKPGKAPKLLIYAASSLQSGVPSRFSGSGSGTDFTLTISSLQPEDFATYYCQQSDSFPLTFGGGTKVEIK
notes: also called Fab4
With B3, in experiment [1], the “internalization after 0.5 h, MCF7 cells” value came to 28%; the “internalization after 1.0 h, MCF7 cells” value came out at 42%; the “internalization after 2.0 h, MCF7 cells” value worked out at 61%. In addition, in experiment [2], the “EC50 cytotoxicity, Fab + anti-kappa-Fab-PE, CHO-K1/human TPBG, replicate 1” value was 0.3 nM and the “EC50 cytotoxicity, Fab + anti-kappa-Fab-PE, CHO-K1/human TPBG, replicate 2” value stood at 0.33 nM. Besides, in experiment [3], the “EC50 cytotoxicity, Fab + anti-kappa-Fab-PE, CHO-K1/minipig TPBG, replicate 1” value was determined as 2.08 nM and the “EC50 cytotoxicity, Fab + anti-kappa-Fab-PE, CHO-K1/minipig TPBG, replicate 2” value is 2.15 nM. Also, in experiment [4], the “EC50 cytotoxicity, Fab-PE sandwich construct, MCF7” value is 0.935 nM; the “X-fold higher potency compared to TPBG(H8)PE, MCF7, first experiment” value stood at 1.3 fold; the “X-fold higher potency compared to TPBG(H8)PE, MCF7, second experiment” value is 2.4 fold. For the same molecule, in [5], the “EC50 cytotoxicity, Fab-PE sandwich construct, H1975, replicate 1” value was found to be 0.826 nM; the “EC50 cytotoxicity, Fab-PE sandwich construct, H1975, replicate 2” value turned out to be 0.656 nM; the “EC50 cytotoxicity, Fab-PE sandwich construct, H1975, replicate 3” value was 0.706 nM. It took 0.451 µg/mL to reach a half-maximal effect in experiment [6] (EC50). For the same molecule, in experiment [7], the Kd is 0.82 nM, the koff turned out to be 0.000814 s⁻¹ and the kon was 993000 M⁻¹ s⁻¹. The “Fold change pH 7.2 vs pH 5.5” value in [8] was 1.2 fold. For the same molecule, the “Fold change pH 7.2 vs pH 5.5” value in experiment [9] was 1.2 fold. For the same molecule, in [10], the Kd stood at 1.35 nM, the koff was determined as 0.000254 s⁻¹ and the kon came to 189000 M⁻¹ s⁻¹. This molecule also showed an EC50 in experiment [11] of 0.0152 µg/mL. Further, the EC50 in experiment [12] worked out at 0.0436 µg/mL.
